# Source: the supplement of paper PMC10567573
# ± gives the standard deviation.
# Experiment: protein stability index of a GFP-peptide fusion (GPS, HEK-293T) (PSI 1-6); higher = more stable
# [1] = treatment: DMSO, c terminus: a fixed tail appended
# [2] = treatment: MLN4924 1 uM, 8 h, c terminus: a fixed tail appended
# 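Also: 24-mer peptide tiles fused after GFP, lentivirally expressed, FACS-sorted into six equal bins by GFP/DsRed ratio, decoded by Illumina sequencing, PSI is the read-weighted mean bin number.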
sequence,measurement,setting,value
TKLLNDEDQVVVNKAAVMVHQLSK [CTNNB1],protein stability index,[1],3.6 ± 0.19
same,protein stability index,[2],3.57 ± 0.4
ALRVLAEQNIIPSATNVTCYYQPA [TENT5C],protein stability index,[1],2.31 ± 0.22
same,protein stability index,[2],2.2 ± 0.089
PEMRWNKGTILKASVDYIRKLQKE [TFE3],protein stability index,[1],2.91 ± 0.24
same,protein stability index,[2],2.95 ± 0.17
ITPTKKIELDRTIMPDGTIVTTVT [C2CD2L],protein stability index,[1],2.67 ± 0.25
same,protein stability index,[2],2.79 ± 0.22
EPGYIDSEIGTSDQIVPEYQEDSD [TRIB1],protein stability index,[1],5.69 ± 0.29
same,protein stability index,[2],5.62 ± 0.19
WLPYLYTLQGLYLVYHPVQLSTPH [DHCR7],protein stability index,[1],3 ± 0.25
same,protein stability index,[2],2.91 ± 0.34
KEEGLPEEEPSHVTGREGFPTDAP [ZNF8],protein stability index,[1],5.45 ± 0.23
same,protein stability index,[2],5.57 ± 0.3
KVVECLDHARGKSQVALKIIRNVG [CLK3],protein stability index,[1],2.24 ± 0.21
same,protein stability index,[2],2.22 ± 0.36
VYASDKEWIRFDQSNVLCSIFGIC [PTGFR],protein stability index,[1],2.56 ± 1.4
same,protein stability index,[2],2.24 ± 0.78
NNSWIRKNSTMVNSEDIFLLLCLK [TRIM43],protein stability index,[1],2.84 ± 0.42
same,protein stability index,[2],2.23 ± 0.43
YYSCERAKKAMGYQPLVTMDDAME [NSDHL],protein stability index,[1],3.97 ± 0.34
same,protein stability index,[2],3.71 ± 0.45
KVLRRWVDEEWPKRERGDPSRHF [EDARADD],protein stability index,"treatment: DMSO, c terminus: native",3.21 ± 0.43
same,protein stability index,"treatment: MLN4924 1 uM, 8 h, c terminus: native",3.42 ± 0.2
SANFHSLDDIYYFGGQNAHNQIAI [FUT8],protein stability index,[1],2.4 ± 0.72
same,protein stability index,[2],2.3 ± 0.24
LRHSFQKQQREKTRWLNSGRGDEA [ADD1],protein stability index,[1],3.63 ± 0.5
same,protein stability index,[2],3.92 ± 0.35
MSRMINKYKRRRFQKTKNLLTGET [CLPTM1],protein stability index,[1],3.05 ± 0.32
same,protein stability index,[2],3.26 ± 0.35
KEEKQRRRCKPKKPTRRDASPESP [GNAS],protein stability index,[1],5.43 ± 0.18
same,protein stability index,[2],5.47 ± 0.11
MVERRGPGRPRTDGENVFTGQSKI [KMT5A],protein stability index,[1],4.19 ± 0.36
FTETNNHWPQGPTGPPGPPGPMGP [EMID1],protein stability index,[1],2.58 ± 0.28
same,protein stability index,[2],3.4 ± 0.5
SSAIEVIMLRSNESFTMDDMSWTC [VDR],protein stability index,[1],2.6 ± 0.53
same,protein stability index,[2],2.29 ± 0.38
VGHNHTYNMAPSALDSADLPPPSA [NFE2L1],protein stability index,[1],4.61 ± 0.16
same,protein stability index,[2],4.43 ± 0.36
LKNIRHRPGGGRVKIESVKLDFKE [MAP2],protein stability index,[1],3.22 ± 0.29
same,protein stability index,[2],3.52 ± 0.38
ASVATWAIFVHRVGQPSIGGKLSP [CTBP1-DT],protein stability index,[1],2.65 ± 0.9
same,protein stability index,[2],2.33 ± 0.33
IFALYSSLKFKSRVPQTWSKRLYG [PLD5],protein stability index,[2],2.83 ± 1.7
IPSWQIRTVKLIRYVSNWDFFIVG [PKD2L1],protein stability index,[1],2.79 ± 0.52
same,protein stability index,[2],2.93 ± 0.7
QLQSLCRGLGLGGRRLKSPQAPDP [FANCE],protein stability index,[1],3.02 ± 1
same,protein stability index,[2],3.16 ± 0.74
TTQDLFAINRDTAFPGASHESSGN [RHOBTB3],protein stability index,[1],4.57 ± 0.51
same,protein stability index,[2],4.87 ± 0.15
SYRSFHSGGYGQDALGMDPMMEHE [CTNNB1],protein stability index,[1],4.29 ± 0.2
same,protein stability index,[2],4.21 ± 0.25
VLFNEKIREQIKKYRRHFLRFCHN [EIF5],protein stability index,[1],2.82 ± 0.29
same,protein stability index,[2],3 ± 0.65
LCAYGFFASLRPSEPFLTPYLLGP [SLC19A2],protein stability index,[1],2.94 ± 0.32
same,protein stability index,[2],2.9 ± 0.56
VNNYTNSFGGEWSAPDTMKRYSMY [TRIM29],protein stability index,[1],2.32 ± 0.19
same,protein stability index,[2],2.62 ± 0.3
EYDDDDSAASTSFQPQPVQPQQGY [ZNF207],protein stability index,[1],5.32 ± 0.21
same,protein stability index,[2],5.37 ± 0.26
CKKAFREGSRKSSRVKGSAPEIDP [KMT2E],protein stability index,[1],4.46 ± 0.15
same,protein stability index,[2],4.48 ± 0.15
HRGHCERRHRLGGVGAVPGPGTPT [ZBTB22],protein stability index,[1],4.2 ± 0.26
same,protein stability index,[2],4.36 ± 0.16
QLVVMHPTPQVDELDILPIHPPSG [BTBD10],protein stability index,[1],3.74 ± 0.1
same,protein stability index,[2],3.75 ± 0.11
LSDNATAFSNRSKQLRRQMWWRGC [VAMP4],protein stability index,[1],2.54 ± 0.048
same,protein stability index,[2],2.67 ± 0.33
MMRMFSENLAHHLEIDSGVITLDP [TRIM15],protein stability index,[1],2.52 ± 0.16
same,protein stability index,[2],2.69 ± 0.37
CPAELFTNTRSDLDVFGRGDNISD [LUC7L3],protein stability index,[1],4.38 ± 0.26
same,protein stability index,[2],4.65 ± 0.19
VFQHHQYLSPLERKRLAREMQLSE [VENTX],protein stability index,[1],2.81 ± 0.26
same,protein stability index,[2],3.08 ± 0.37
DYSFLSLGVYSALREIAFTRQLHE [ATE1],protein stability index,[1],2.99 ± 1.3
same,protein stability index,[2],2.68 ± 0.94
DNLLLDAKGHVKLSDFGLCTGLKK [STK38L],protein stability index,[1],3.12 ± 0.1
same,protein stability index,[2],3.38 ± 0.44
EEVDTGAVNLIESGACGAFVHGLE [INTS4],protein stability index,[1],4.34 ± 0.39
same,protein stability index,[2],4.85 ± 0.46
FVVLAFLTGVLCSYPNPNEDKCPG [TMEM192],protein stability index,[1],2.92 ± 0.52
same,protein stability index,[2],3.22 ± 0.46
SAVAMYMLYEKQKQQNVAHCMLVS [ZBED1],protein stability index,[1],2.92 ± 0.54
same,protein stability index,[2],2.74 ± 0.53
AQSRLEDPGADSEKSTVVEGGEVR [DLX1],protein stability index,[1],5.42 ± 0.28
same,protein stability index,[2],5.45 ± 0.37
VHEVLQAVDAGDPAVEACENRRKV [TCF25],protein stability index,[1],5.3 ± 0.22
same,protein stability index,[2],5.35 ± 0.097
ELLSAPPPDLGAQRRHGWNPKDCS [SPSB2],protein stability index,[1],3.72 ± 0.14
same,protein stability index,[2],3.48 ± 0.25
HTLLNELERNPNGVADGVIKSVLW [CDKL4],protein stability index,[1],2.58 ± 0.49
same,protein stability index,[2],2.7 ± 0.4
TGQPLPQSIQQAMRYLRNHCLDQV [DLC1],protein stability index,[1],2.36 ± 0.093
same,protein stability index,[2],2.4 ± 0.22
LSVSNNQEPDFIDDIEEKTPISNE [KMT2E],protein stability index,[1],4.69 ± 0.37
same,protein stability index,[2],4.75 ± 0.21
LAPVPTHSTVSELSRSPVATATSC [DUSP5],protein stability index,[1],4.24 ± 0.3
same,protein stability index,[2],4.17 ± 0.15
LVVILLSIVAVGFHIFRTLEVNRL [PKD2L1],protein stability index,[1],3.44 ± 0.88
same,protein stability index,[2],3.12 ± 0.23
DVCISILHPPVDDPQSGELPSERW [CDC34],protein stability index,[1],3.9 ± 0.28
same,protein stability index,[2],4.01 ± 0.24
VKESGERKVTDSISKSLELCNEIS [DLC1],protein stability index,[1],4.52 ± 0.11
same,protein stability index,[2],4.82 ± 0.21
AAAGEQASGAEAEPGPAGPPPPPS [BTBD1],protein stability index,[1],5.446 ± 0.021
same,protein stability index,[2],5.52 ± 0.19
TVAIGAESEVYSWGKGARGRLGRR [NEK8],protein stability index,[1],4.08 ± 0.16
same,protein stability index,[2],4.14 ± 0.15
GSFTVRADHGEPIGRGTKVILHLK [HSP90AB1],protein stability index,[1],2.1 ± 0.3
same,protein stability index,[2],2.71 ± 0.3
KHYRFTHAEIIAWIRICRPGSIIG [CDC14A],protein stability index,[1],2.55 ± 0.15
same,protein stability index,[2],2.83 ± 0.67
RNGGSLADAISENYRIMSYFKEAE [WEE1],protein stability index,[1],3.08 ± 0.36
same,protein stability index,[2],3.2 ± 0.28
PKDLDPSLCTHLIYAFAGMTNHQL [CHIT1],protein stability index,[1],2.75 ± 0.44
same,protein stability index,[2],2.46 ± 0.6
RFYLLLFSFLGLLALGVSLLCNAI [PTGFR],protein stability index,[1],2.4 ± 0.26
same,protein stability index,[2],2.57 ± 0.24
LELLSAPELKSLAKTFHLVNPNGQ [FAN1],protein stability index,[1],2.74 ± 0.13
same,protein stability index,[2],2.84 ± 0.095
MMYSAELWRYRTITFSGRPSRVHA [FBXO39],protein stability index,[1],2.23 ± 0.091
same,protein stability index,[2],2.46 ± 0.2
KYIHRMMQIEFIKQGSMNFRFIPV [TRAF3IP2],protein stability index,[1],3.659 ± 0.005
same,protein stability index,[2],2.21 ± 1.1
AARAAGRDVAAEAVARSPKRPAWG [POMT2],protein stability index,[1],4.1 ± 0.29
same,protein stability index,[2],4.29 ± 0.51
SRIKVLETSYQQREERLRRENEEL [FBF1],protein stability index,[1],4.9 ± 0.18
same,protein stability index,[2],5.07 ± 0.26
SLCTHLIYAFAGMTNHQLSTTEWN [CHIT1],protein stability index,[1],3.43 ± 0.33
same,protein stability index,[2],3.27 ± 0.38
SISDVKFSHSGRYIMTRDYLTVKV [PPP2R2B],protein stability index,[1],2.37 ± 0.47
same,protein stability index,[2],2.52 ± 0.57
GLFRKSGVKSRIQALRQMNEGAID [DLC1],protein stability index,[1],3.36 ± 0.1
same,protein stability index,[2],3.71 ± 0.12
RLSGLSSVGHNWRKRMGTRRGRHE [C22orf15],protein stability index,[1],4.08 ± 0.23
same,protein stability index,[2],4.14 ± 0.19
LDNSRSILKRRYYRQHCTLELGSY [CTDNEP1],protein stability index,[1],2.34 ± 0.45
same,protein stability index,[2],2.42 ± 0.31
GHRLAQKLQGLENWGQDPGVSANA [PBXIP1],protein stability index,[1],3.82 ± 0.2
same,protein stability index,[2],3.87 ± 0.3
PPGIPPLMPGVPPLMPGMPPVMPG [ZNF207],protein stability index,[1],3.9 ± 0.23
same,protein stability index,[2],4.07 ± 0.21
VPQAPRRLRASFSRKPSLKGNRED [PLEKHN1],protein stability index,[1],4.71 ± 0.097
same,protein stability index,[2],4.83 ± 0.13
VQAIFSGDPEEIRMLIHKTEDVNT [ANKRD44],protein stability index,[1],3.76 ± 0.11
same,protein stability index,[2],3.58 ± 0.11
ALVAPLLRLENNHCHIEESEHVLK [VPS39],protein stability index,[1],3.26 ± 0.11
same,protein stability index,[2],3.32 ± 0.2
TVMMWPLAVYHRLWDRAYVRLKPA [RETREG3],protein stability index,[1],2.34 ± 0.23
same,protein stability index,[2],2.27 ± 0.15
FQLNQDKMNFSTLRNIQGLFAPLK [POMP],protein stability index,[1],2.54 ± 0.61
same,protein stability index,[2],2.3 ± 0.4
FRDEKDYPASTSQDSFEAAGNSTS [KCNA3],protein stability index,[1],5.55 ± 0.25
same,protein stability index,[2],5.47 ± 0.077
PDLRDIELKLGRKVPESLVRSLRG [LURAP1L],protein stability index,[1],3.16 ± 0.4
same,protein stability index,[2],3.17 ± 0.41
LGSWLVPFAYLTVLDLSKSLSAAL [POMT2],protein stability index,[1],3.19 ± 0.56
same,protein stability index,[2],3.34 ± 0.37
FFIQTVRPKDTVMCYRVRWEEAAP [MYORG],protein stability index,[1],2.62 ± 0.73
same,protein stability index,[2],2.56 ± 0.92
VTSFPDADAFHHQVHDDDLLSSSE [EMD],protein stability index,[1],5.38 ± 0.33
same,protein stability index,[2],5.33 ± 0.21
TARVIIPLLKDEGFAVKALWGRTQ [GFOD1],protein stability index,[1],2.08 ± 0.32
same,protein stability index,[2],2.27 ± 0.35
VRNLQSEVEGVKNIMTQNVERILA [VAMP8],protein stability index,[1],3.01 ± 0.41
same,protein stability index,[2],2.96 ± 0.51
RALEEANTELEVKIRDWYQRQAPG [KRT17],protein stability index,[1],3.37 ± 0.16
same,protein stability index,[2],3.58 ± 0.4
LNSVERYDPKTNQWSSDVAPTSTC [KLHL20],protein stability index,[1],4.18 ± 0.097
same,protein stability index,[2],4.24 ± 0.43
GGTTGYIYSTDLHKLDLNTREWTQ [KLHDC10],protein stability index,[1],2.44 ± 0.3
same,protein stability index,[2],2.47 ± 0.43
STCFERPCFKWYTSPWSECTKTCG [ADAMTSL2],protein stability index,[1],2.47 ± 0.64
same,protein stability index,[2],2.75 ± 0.57
DGAWCAGRNDLQQWIEVDARRLTR [CPXM2],protein stability index,[1],3.48 ± 0.35
same,protein stability index,[2],3.95 ± 0.52
